Results: patent US20070027089A1 (POSCO, published 2007)
Where no end group is shown, it is not given here. The star is where a group is joined. Biotin = O=C1N[C@H]2[C@H](CS[C@H]2CCCCC(=O)*)N1; Dnp = O=[N+]([O-])c1ccc(*)c([N+](=O)[O-])c1; Mca = COc1ccc2c(CC(=O)*)cc(=O)oc2c1

How the values were obtained:
[1] = biological target: T1, Substrate M (decamer containing the β-secretase cleavage site of Swedish mutant APP), non-labelled; assay: cell-based or functional assay
T1 peptide: SEVNLDAEFR

[2] = biological target: T2, Sub-ST6Gal1 (non-labelled); assay: cell-based or functional assay
T2 peptide: DYEALTLQAKEFQMPKSQE

[3] = biological target: T3, biotin-labeled Substrate W; assay: plate assay: HC peptide chemically coupled to plate, bio-Sub W, Str-HRP (FIG. 27)
T3 construct: also called bio-Sub W; N-terminally biotinylated Substrate W
T3 peptide: Biotin-SEVKMDAEFR
Experimental: (§1) Reacti-BindTM maleic anhydride-activated polystyrene plate (Pierce, Ill., USA) was coated with 50 μl of HC peptide (200 μM in distilled water) by chemical coupling for 3 h at room temperature (RT) and washed three times with phosphate buffered saline (PBS) containing 0.05% tween 20 (PBST). The plate was blocked with blocking buffer (0.5% gelatin in PBS) for 1 h at RT. After discarding blocking buffer, biotinylated BACE1 substrates (200 μM) in blocking buffer was applied on the plate and incubated for 2.5 h at RT. Each well was washed three times with PBST. The bound biotinylated BACE1 substrates were detected by incubation with streptavidin-horseradish peroxidase (Str-HRP, 125 mU/ml in blocking buffer) for 2 h at RT. Color reaction was carried out with 50 μl of 3,3′,5,5′-Tetramethylbenzidine Liquid Substrate (Sigma-Aldrich, Mo., USA). After stopping the reaction by addition of an equal volume of 1 N HCl, absorbance at 450 nm was read in an automated ELISA reader (EL 312e, Bio-Tek Instruments, VT, USA). All assays were carried out in duplicate.

[4] = biological target: T4, f-Sub M (7-methoxycoumarin-4-acetyl-SEVNLDAEFRK(Dnp)-RR-NH2); assay: cell-based or functional assay
T4 peptide: Mca-SEVNLDAEFRK(Dnp)RR-NH2

[5] = biological target: T5, recombinant human β-secretase (rhBACE1) (human, UniProt P56817 22-457, limits assumed); assay: ELISA, c-Sub M immobilised
T5 construct: Bought
T5 sequence (P56817 22-457 limits assumed): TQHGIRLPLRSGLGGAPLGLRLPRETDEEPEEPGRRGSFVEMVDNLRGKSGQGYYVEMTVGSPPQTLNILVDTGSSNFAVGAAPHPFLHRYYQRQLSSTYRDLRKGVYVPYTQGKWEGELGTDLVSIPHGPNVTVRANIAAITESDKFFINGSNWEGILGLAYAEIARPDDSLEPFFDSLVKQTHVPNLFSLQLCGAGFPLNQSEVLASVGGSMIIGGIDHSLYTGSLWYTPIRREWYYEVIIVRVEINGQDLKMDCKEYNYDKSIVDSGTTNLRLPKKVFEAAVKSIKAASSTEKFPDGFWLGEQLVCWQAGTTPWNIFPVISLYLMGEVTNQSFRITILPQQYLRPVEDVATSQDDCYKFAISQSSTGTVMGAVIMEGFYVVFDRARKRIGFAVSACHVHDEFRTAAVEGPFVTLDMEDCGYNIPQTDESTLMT

[6] = biological target: T6, biotin-labeled Substrate M; assay: plate assay: complementary peptide immobilised, biotinylated substrate, streptavidin-HRP
T6 construct: also called bio-Sub M; N-terminally biotinylated Substrate M
T6 peptide: Biotin-SEVNLDAEFR

[7] = biological target: T6, biotin-labeled Substrate M; assay: plate assay: HC peptide chemically coupled to plate, bio-Sub M, Str-HRP, A450 (Table 2)
Experimental: as §1

[8] = biological target: T6, biotin-labeled Substrate M; assay: plate assay: HC peptide chemically coupled to plate, bio-Sub M, Str-HRP, A450 (Table 1)
Experimental: as §1

[9] = biological target: T3, biotin-labeled Substrate W; assay: plate assay: complementary peptide immobilised, biotinylated substrate, streptavidin-HRP

For FCIQIHF-NH2 [c-Sub M ΔN2C1 (FCIQIHF)], which “percent of substrate cleavage by β-secretase blocked (HPLC), 25-fold inhibitor” value [1] is on record?
The value was roughly 60%.

What about the “percent of substrate cleavage by β-secretase blocked (HPLC), 25-fold inhibitor” value [2] of the same binder?
Its value is 25%.

Does FCIQIHF-NH2 [c-Sub M ΔN2C1 (FCIQIHF)] bind [3]?
Result: binds

B1: c-Sub M (SEFCIQIHFR) (peptide)
peptide: SEFCIQIHFR-NH2
notes: Hydropathic complementary peptide designed from the antisense strand of Sub M, read 5'->3'; also called HC peptide c-Sub M
Which results are given for B1?
percent inhibition of f-Sub M cleavage by rhBACE1 (FRET), peptide 100 fold over substrate [4]: ~50%; percent inhibition of f-Sub M cleavage by rhBACE1 (peptide 1 mM, f-Sub M 10 µM) [4]: 45%; binding result [5]: no binding; fold binding to Sub W relative to c-Sub W [3]: 4 fold; binding result [6]: binds

SEFCIQIHF-NH2 (also called c-SubM CΔ1) [c-Sub M ΔC1 (SEFCIQIHF)] was tested. Which “percent inhibition of f-Sub M cleavage by rhBACE1 (peptide 1 mM, f-Sub M 10 µM)” value [4] did it give?
The value was 90%.

Does SEFCIQIHF-NH2 (also called c-SubM CΔ1) [c-Sub M ΔC1 (SEFCIQIHF)] bind [7]?
Result: binds

SEFCIQIH-NH2 [c-Sub M ΔC2 (SEFCIQIH)] was tested. Which “percent inhibition of f-Sub M cleavage by rhBACE1 (peptide 1 mM, f-Sub M 10 µM)” value [4] did it give?
Its value is 44%.

With SEFCIQI-NH2 [c-Sub M ΔC3 (SEFCIQI)] as the binder, how does the “percent inhibition of f-Sub M cleavage by rhBACE1 (peptide 1 mM, f-Sub M 10 µM)” value [4] read?
The value was greater than 90%.

For SEFCIQ-NH2 [c-Sub M ΔC4 (SEFCIQ)], which “percent inhibition of f-Sub M cleavage by rhBACE1 (peptide 1 mM, f-Sub M 10 µM)” value [4] is on record?
Its value is greater than 90%.

With SEFCI-NH2 [c-Sub M ΔC5 (SEFCI)] as the binder, how does the “percent inhibition of f-Sub M cleavage by rhBACE1 (peptide 1 mM, f-Sub M 10 µM)” value [4] read?
Its value is greater than 90%.

B2: c-Sub M ΔN1C1 (EFCIQIHF) (peptide)
peptide: EFCIQIHF-NH2
notes: also called one amino acid deletion from N-terminal of c-Sub M ΔC1
B2 was tested. Which “percent inhibition of substrate cleavage by rhBACE1 (HPLC), inhibitor/substrate ratio 20” value [1] did it give?
The value was 100%.

And the “percent inhibition of substrate cleavage by rhBACE1 (HPLC), inhibitor/substrate ratio up to 10” value [1]?
The value was 60%.

And the “percent inhibition of substrate cleavage by rhBACE1 (HPLC), inhibitor/substrate ratio 20” value [2]?
Its value is 40%.

And the “percent inhibition of substrate cleavage by rhBACE1 (HPLC), inhibitor/substrate ratio up to 10” value [2]?
The value was roughly 10%.

What about the “IC50 of inhibition of f-Sub M (10 µM) cleavage by rhBACE1 (FRET)” value [4] of the same binder?
The value was 15 µM.

And the “fold binding to Sub W relative to c-Sub W” value [3]?
The value was 2.5 fold.

Which “inhibitory activity relative to c-Sub M ΔN1C1 (FRET, f-Sub M 10 µM)” value [4] does the source give for CIQIHF-NH2 (also called c-Sub MΔC1N3; c-Sub ΔN3C1) [c-Sub M ΔN3C1 (CIQIHF)] here?
The value was roughly 0.1 fold.

Does CIQIHF-NH2 (also called c-Sub MΔC1N3; c-Sub ΔN3C1) [c-Sub M ΔN3C1 (CIQIHF)] bind [3]?
Result: binds

B3: c-Sub W (SEFCIHLHFR) (peptide)
peptide: SEFCIHLHFR-NH2
notes: Hydropathic complementary peptide designed from the antisense strand of Sub W, read 5'->3'
Does B3 bind [8]?
Result: binds

Does B3 bind [9]?
Result: binds

B4: Sub W-c (RLHFYLRLKA) (peptide)
peptide: RLHFYLRLKA-NH2
notes: Complementary peptide of Sub W read 3'->5'
Does B4 bind [8]?
Result: binds
